Among the data in paper PMC9666628 are response (Absorbance and Kd values, retold here.

Where “and” joins values, the source holds several entries; their conditions need not be identical. Equal entries are not always repeated.

Experiment [1] addresses H3K27 peptide (non-methylated), N-terminal biotin. As to the kind of experiment: phage ELISA. The conditions noted are these: read off a plot.
Experiment [2] addresses H3K27me3 peptide, N-terminal biotin. As to the kind of experiment: phage ELISA. The conditions noted are these: read off a plot. A general note: In an ELISA, binding on a coated surface is turned into a signal by an enzyme label.
Experiment [3] has as its target H3K9me3 peptide, N-terminal FITC. Description: fluorescence polarisation; 0.5 nM FITC-labelled peptide; chromodomains 200-0.2 µM (wild type) or 50 µM-50 nM (Cbx7.V1 and all Cbx.VDs); 30 min at 25 °C; 25 mM HEPES pH 7.5, 150 mM NaCl, 1 mM DTT, 0.01% TritonX-100; one-site total binding model. For orientation: In fluorescence polarisation assays a small probe gives low polarisation when free and higher when bound to something large.

Experiment [4] addresses H3K27me3 peptide, N-terminal FITC. The experiment is described as above.
Experiment [5] deals with H3K27me3 peptide, FITC-labeled. As to the kind of experiment: fluorescence polarisation; 0.5 nM FITC-labeled peptide, chromodomain serially diluted (wild types 200-0.2 µM; Cbx7.V1 and Cbx.VDs 50 µM-50 nM); 25 °C, 30 min; 25 mM HEPES pH 7.5, 150 mM NaCl, 1 mM DTT, 0.01% TritonX-100; one-site total binding model; values of single replicates.
The target of experiment [6] is H3K9me3 peptide, FITC-labeled. The experiment is described as above.
Experiment [7] concerns the target FITC-labeled H3K9me3 peptide. Description: fluorescence polarisation; 0.5 nM FITC-labeled peptide, chromodomain serially diluted (wild type 200-0.2 µM; Cbx7.V1 50 µM-50 nM); 25 mM HEPES pH 7.5, 150 mM NaCl, 1 mM DTT, 0.01% TritonX-100; 30 min at 25 °C; one-site total binding model.
The target of experiment [8] is Histone H3 H3K9me3 peptide (Homo sapiens) (UniProt P68431). The conditions noted are these: cited from earlier work.

On to Cbx7.wt G7C; E8D; Q9N; K33E; P37Q; K38E, for which the response (Absorbance at 450 nm) was 0.09 in experiment [1] and 0.52 in experiment [2]. The term Kd denotes the free concentration of one partner at which half of the binding sites on the other are occupied at equilibrium, for simple one-to-one binding. The substance “Cbx3.VD chromodomain, Asp9/Glu33 (tags removed) (from UniProt Q13185 29-86) (domain or fragment)” gave a dissociation constant Kd in experiment [3] of 350 nM. Substance “Cbx1.VD chromodomain, Asp9/Glu33 (tags removed) (from UniProt P83916 20-73) (domain or fragment)” returned a Kd in experiment [3] of 600 nM. The substance “Cbx7.wt E8D; Q9D; V10I; K33E; P37L; K38E” returned a response (Absorbance at 450 nm) in experiment [1] of 0.12.

As to “Cbx8.VD chromodomain, Asp9/Glu33 (tags removed) (from UniProt Q9HC52 8-61) (domain or fragment)”, the results for the Kd in experiment [4] and in experiment [3] were > 50000 nM and 20000 nM, respectively. On to “Cbx2 chromodomain with the Asp9/Glu33 double substitution (from UniProt Q14781 9-62) (domain or fragment)”, for which the Kd in experiment [5] is 2400 nM and 2100 nM and 4300 nM; in experiment [6], 4000 nM and 6000 nM and 5000 nM. For “Cbx7.wt G7C; Q9Y; V10I; A12S; K33E; K38E; S40M”, the response (Absorbance at 450 nm) stood at 0.12 in experiment [1] and 0.5 in experiment [2]. On the same counts, the results for “Cbx7.wt E8H; Q9D; A12P; K33R; G34D; P37E; K38Q” are 0.08 and 0.55. Substance Cbx7.wt (domain or fragment) displayed a Kd in experiment [7] of 27000 nM. For the substance “Cbx8 chromodomain with the Asp9/Glu33 double substitution (from UniProt Q9HC52 8-61) (domain or fragment)”, the Kd in experiment [6] is 21000 nM and 26000 nM and 16000 nM. The same measure, in the same setting: the result for “Cbx5 chromodomain with the Asp9/Glu33 double substitution (from UniProt P45973 18-75) (domain or fragment)” reads 560 nM and 440 nM and 510 nM. Turning to “Cbx7.wt G7C; E8D; Q9N; F11Y; A12P; P37L; K38E”, the response (Absorbance at 450 nm) in experiment [1] stood at 0.11; in experiment [2] it was 1.9. Substance “Cbx5.VD chromodomain, Asp9/Glu33 (tags removed) (from UniProt P45973 18-75) (domain or fragment)” had a dissociation constant (Kd) in experiment [3] of 500 nM.

In the case of Cbx7.wt G7F; Q9D; A12P; P37S; K38E, the response (Absorbance at 450 nm) in experiment [1] was found to be 0.13; in experiment [2], 0.73. Regarding Cbx7 chromodomain (from UniProt O95931), the Kd in experiment [8] was 55000 nM.

In the case of “Cbx1 chromodomain with the Asp9/Glu33 double substitution (from UniProt P83916 20-73) (domain or fragment)”, the Kd in experiment [6] was 582 nM and 632 nM and 600 nM. Regarding “Cbx2.VD chromodomain, Asp9/Glu33 (tags removed) (from UniProt Q14781 9-62) (domain or fragment)”, the Kd came to 3000 nM in experiment [4] and 5000 nM in experiment [3]. “Cbx3 chromodomain with the Asp9/Glu33 double substitution (from UniProt Q13185 29-86) (domain or fragment)”: the Kd in experiment [6] is 390 nM and 290 nM and 370 nM.
